The values below come from patent US20180155451A1 (published 2018).

Experiment [1] deals with T1, FcγRIIb extracellular domain with C-terminal His tag (human, UniProt P31994 43-217).
T1 construct: extracellular domain; also called 2b; FcgRIIb; not shown: His tag at the C terminus
T1 sequence (looked up): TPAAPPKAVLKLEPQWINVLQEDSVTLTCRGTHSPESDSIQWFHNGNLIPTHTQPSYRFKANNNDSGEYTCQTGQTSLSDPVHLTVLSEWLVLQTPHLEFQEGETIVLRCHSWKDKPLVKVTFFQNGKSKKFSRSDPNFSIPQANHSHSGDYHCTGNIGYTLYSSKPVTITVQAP
Briefly: SPR (Biacore), relative binding, GpH7-A5/GpH7-B3/GpL16-k0 = 100.

Experiment [2] addresses T2, FcγRIIIa extracellular domain with C-terminal His tag (human, UniProt P08637 17-208).
T2 construct: extracellular domain; also called 3a; FcgRIIIa; not shown: His tag at the C terminus
The experiment is described as above.

T2 sequence (P08637 17-208): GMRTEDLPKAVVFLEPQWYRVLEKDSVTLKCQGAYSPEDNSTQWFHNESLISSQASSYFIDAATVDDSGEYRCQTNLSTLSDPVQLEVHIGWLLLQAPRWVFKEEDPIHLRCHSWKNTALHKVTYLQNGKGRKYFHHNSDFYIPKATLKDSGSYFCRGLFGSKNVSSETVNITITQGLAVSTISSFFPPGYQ

B1: GpH7-A5/GpH7-B3 variant P331_16H/GpL16-k0 (antibody, human IgG1, kappa)
heavy 1: not shown
heavy 2: not shown
light: DIVMTQSPLSLPVTPGEPASISCQASESLVHSNRNTYLHWYLQKPGQSPQLLIYKVSNRFSGVPDRFSGSGSGTDFTLKISRVEAEDVGVYYCSQNTHVPPTFGQGTKVEIERTVAAPSVFIFPPSDEQLKSGTASVVCLLNNFYPREAKVQWKVDNALQSGNSQESVTEQDSKDSTYSLSSTLTLSKADYEKHKVYACEVTHQGLSSPVTKSFNRGEC
notes: He Ab: mutation in the GpH7-B3 H chain only; also called He Ab
B1: the He/Con_2b in experiment [1] is 116 % of control. For the same molecule, the He/Con_3a in experiment [2] is 80.2 % of control.

B2: GpH7-A5/GpH7-B3 variant S267_05P/GpL16-k0 (antibody, human IgG1, kappa)
heavy 1: not shown
heavy 2: not shown
light: DIVMTQSPLSLPVTPGEPASISCQASESLVHSNRNTYLHWYLQKPGQSPQLLIYKVSNRFSGVPDRFSGSGSGTDFTLKISRVEAEDVGVYYCSQNTHVPPTFGQGTKVEIERTVAAPSVFIFPPSDEQLKSGTASVVCLLNNFYPREAKVQWKVDNALQSGNSQESVTEQDSKDSTYSLSSTLTLSKADYEKHKVYACEVTHQGLSSPVTKSFNRGEC
notes: as for B1
For the molecule B2, the He/Con_2b in experiment [1] is 31.5 % of control. Besides, in experiment [2], the He/Con_3a was 15.7 % of control.

B3: GpH7-A5/GpH7-B3 variant S337_08L/GpL16-k0 (antibody, human IgG1, kappa)
heavy 1: not shown
heavy 2: not shown
light: DIVMTQSPLSLPVTPGEPASISCQASESLVHSNRNTYLHWYLQKPGQSPQLLIYKVSNRFSGVPDRFSGSGSGTDFTLKISRVEAEDVGVYYCSQNTHVPPTFGQGTKVEIERTVAAPSVFIFPPSDEQLKSGTASVVCLLNNFYPREAKVQWKVDNALQSGNSQESVTEQDSKDSTYSLSSTLTLSKADYEKHKVYACEVTHQGLSSPVTKSFNRGEC
notes: as for B1
On to B3, for which the He/Con_2b in experiment [1] is 100 % of control. For the same molecule, the He/Con_3a in experiment [2] is 96.9 % of control.

B4: GpH7-A5/GpH7-B3 variant S267_02A/GpL16-k0 (antibody, human IgG1, kappa)
heavy 1: not shown
heavy 2: not shown
light: DIVMTQSPLSLPVTPGEPASISCQASESLVHSNRNTYLHWYLQKPGQSPQLLIYKVSNRFSGVPDRFSGSGSGTDFTLKISRVEAEDVGVYYCSQNTHVPPTFGQGTKVEIERTVAAPSVFIFPPSDEQLKSGTASVVCLLNNFYPREAKVQWKVDNALQSGNSQESVTEQDSKDSTYSLSSTLTLSKADYEKHKVYACEVTHQGLSSPVTKSFNRGEC
notes: as for B1
B4: the He/Con_2b in experiment [1] is 243 % of control. Further, the He/Con_3a in experiment [2] was 150 % of control.

B5: GpH7-A5/GpH7-B3 variant S267_06M/GpL16-k0 (antibody, human IgG1, kappa)
heavy 1: not shown
heavy 2: not shown
light: DIVMTQSPLSLPVTPGEPASISCQASESLVHSNRNTYLHWYLQKPGQSPQLLIYKVSNRFSGVPDRFSGSGSGTDFTLKISRVEAEDVGVYYCSQNTHVPPTFGQGTKVEIERTVAAPSVFIFPPSDEQLKSGTASVVCLLNNFYPREAKVQWKVDNALQSGNSQESVTEQDSKDSTYSLSSTLTLSKADYEKHKVYACEVTHQGLSSPVTKSFNRGEC
notes: as for B1
Take B5: in experiment [1], the He/Con_2b is 210 % of control. Besides, the He/Con_3a in experiment [2] was 66 % of control.

B6: GpH7-A5/GpH7-B3 variant S267_04F/GpL16-k0 (antibody, human IgG1, kappa)
heavy 1: not shown
heavy 2: not shown
light: DIVMTQSPLSLPVTPGEPASISCQASESLVHSNRNTYLHWYLQKPGQSPQLLIYKVSNRFSGVPDRFSGSGSGTDFTLKISRVEAEDVGVYYCSQNTHVPPTFGQGTKVEIERTVAAPSVFIFPPSDEQLKSGTASVVCLLNNFYPREAKVQWKVDNALQSGNSQESVTEQDSKDSTYSLSSTLTLSKADYEKHKVYACEVTHQGLSSPVTKSFNRGEC
notes: as for B1
With B6, the He/Con_2b in experiment [1] is 48 % of control. Also, in experiment [2], the He/Con_3a is 11 % of control.

B7: GpH7-A5/GpH7-B3 variant S267_07I/GpL16-k0 (antibody, human IgG1, kappa)
heavy 1: not shown
heavy 2: not shown
light: DIVMTQSPLSLPVTPGEPASISCQASESLVHSNRNTYLHWYLQKPGQSPQLLIYKVSNRFSGVPDRFSGSGSGTDFTLKISRVEAEDVGVYYCSQNTHVPPTFGQGTKVEIERTVAAPSVFIFPPSDEQLKSGTASVVCLLNNFYPREAKVQWKVDNALQSGNSQESVTEQDSKDSTYSLSSTLTLSKADYEKHKVYACEVTHQGLSSPVTKSFNRGEC
notes: as for B1
Regarding B7, the He/Con_2b in experiment [1] was 192 % of control. Further, in experiment [2], the He/Con_3a is 25.2 % of control.

B8: GpH7-A5/GpH7-B3 variant S267_08L/GpL16-k0 (antibody, human IgG1, kappa)
heavy 1: not shown
heavy 2: not shown
light: DIVMTQSPLSLPVTPGEPASISCQASESLVHSNRNTYLHWYLQKPGQSPQLLIYKVSNRFSGVPDRFSGSGSGTDFTLKISRVEAEDVGVYYCSQNTHVPPTFGQGTKVEIERTVAAPSVFIFPPSDEQLKSGTASVVCLLNNFYPREAKVQWKVDNALQSGNSQESVTEQDSKDSTYSLSSTLTLSKADYEKHKVYACEVTHQGLSSPVTKSFNRGEC
notes: as for B1
Consider B8, for which the He/Con_2b in experiment [1] was 109 % of control. For the same molecule, the He/Con_3a in experiment [2] was 19.5 % of control.

B9: GpH7-A5/GpH7-B3 variant S267_09D/GpL16-k0 (antibody, human IgG1, kappa)
heavy 1: not shown
heavy 2: not shown
light: DIVMTQSPLSLPVTPGEPASISCQASESLVHSNRNTYLHWYLQKPGQSPQLLIYKVSNRFSGVPDRFSGSGSGTDFTLKISRVEAEDVGVYYCSQNTHVPPTFGQGTKVEIERTVAAPSVFIFPPSDEQLKSGTASVVCLLNNFYPREAKVQWKVDNALQSGNSQESVTEQDSKDSTYSLSSTLTLSKADYEKHKVYACEVTHQGLSSPVTKSFNRGEC
notes: as for B1
Take B9: the He/Con_2b in experiment [1] is 310 % of control. Besides, the He/Con_3a in experiment [2] is 181 % of control.

B10: GpH7-A5/GpH7-B3 variant S267_03V/GpL16-k0 (antibody, human IgG1, kappa)
heavy 1: not shown
heavy 2: not shown
light: DIVMTQSPLSLPVTPGEPASISCQASESLVHSNRNTYLHWYLQKPGQSPQLLIYKVSNRFSGVPDRFSGSGSGTDFTLKISRVEAEDVGVYYCSQNTHVPPTFGQGTKVEIERTVAAPSVFIFPPSDEQLKSGTASVVCLLNNFYPREAKVQWKVDNALQSGNSQESVTEQDSKDSTYSLSSTLTLSKADYEKHKVYACEVTHQGLSSPVTKSFNRGEC
notes: as for B1
With B10, the He/Con_2b in experiment [1] is 192 % of control. Also, the He/Con_3a in experiment [2] was 30.8 % of control.

B11: GpH7-A5/GpH7-B3 variant S267_01G/GpL16-k0 (antibody, human IgG1, kappa)
heavy 1: not shown
heavy 2: not shown
light: DIVMTQSPLSLPVTPGEPASISCQASESLVHSNRNTYLHWYLQKPGQSPQLLIYKVSNRFSGVPDRFSGSGSGTDFTLKISRVEAEDVGVYYCSQNTHVPPTFGQGTKVEIERTVAAPSVFIFPPSDEQLKSGTASVVCLLNNFYPREAKVQWKVDNALQSGNSQESVTEQDSKDSTYSLSSTLTLSKADYEKHKVYACEVTHQGLSSPVTKSFNRGEC
notes: as for B1
Consider B11, for which, in experiment [1], the He/Con_2b is 105 % of control. The He/Con_3a in experiment [2] is 53.8 % of control.

B12: GpH7-A5/GpH7-B3 variant S337_07I/GpL16-k0 (antibody, human IgG1, kappa)
heavy 1: not shown
heavy 2: not shown
light: DIVMTQSPLSLPVTPGEPASISCQASESLVHSNRNTYLHWYLQKPGQSPQLLIYKVSNRFSGVPDRFSGSGSGTDFTLKISRVEAEDVGVYYCSQNTHVPPTFGQGTKVEIERTVAAPSVFIFPPSDEQLKSGTASVVCLLNNFYPREAKVQWKVDNALQSGNSQESVTEQDSKDSTYSLSSTLTLSKADYEKHKVYACEVTHQGLSSPVTKSFNRGEC
notes: as for B1
Regarding B12, in experiment [1], the He/Con_2b was 104 % of control. Besides, in experiment [2], the He/Con_3a was 94.8 % of control.

B13: GpH7-A5/GpH7-B3 variant P331_20W/GpL16-k0 (antibody, human IgG1, kappa)
heavy 1: not shown
heavy 2: not shown
light: DIVMTQSPLSLPVTPGEPASISCQASESLVHSNRNTYLHWYLQKPGQSPQLLIYKVSNRFSGVPDRFSGSGSGTDFTLKISRVEAEDVGVYYCSQNTHVPPTFGQGTKVEIERTVAAPSVFIFPPSDEQLKSGTASVVCLLNNFYPREAKVQWKVDNALQSGNSQESVTEQDSKDSTYSLSSTLTLSKADYEKHKVYACEVTHQGLSSPVTKSFNRGEC
notes: as for B1
In the case of B13, the He/Con_2b in experiment [1] was 111 % of control. Also, the He/Con_3a in experiment [2] is 78.6 % of control.

B14: GpH7-A5/GpH7-B3 variant T335_04F/GpL16-k0 (antibody, human IgG1, kappa)
heavy 1: not shown
heavy 2: not shown
light: DIVMTQSPLSLPVTPGEPASISCQASESLVHSNRNTYLHWYLQKPGQSPQLLIYKVSNRFSGVPDRFSGSGSGTDFTLKISRVEAEDVGVYYCSQNTHVPPTFGQGTKVEIERTVAAPSVFIFPPSDEQLKSGTASVVCLLNNFYPREAKVQWKVDNALQSGNSQESVTEQDSKDSTYSLSSTLTLSKADYEKHKVYACEVTHQGLSSPVTKSFNRGEC
notes: as for B1
Regarding B14, the He/Con_2b in experiment [1] was 103 % of control. Further, in experiment [2], the He/Con_3a was 96 % of control.
